Experimental data: article PMC9943653

Assays:
Gal4 (1-147) [1] = assay: ensemble FRET; conditions: EMSA: 10 mM Tris-HCl pH 8, 130 mM NaCl, 10% glycerol, 0.0075% Tween-20, 0.5 nM DNA or nucleosome, smFRET: same Tris/NaCl/glycerol with 0.5% Tween-20, 0.1 mg/ml …
Gal4 (1-147) [2] = assay: single-molecule FRET; conditions: EMSA: 10 mM Tris-HCl pH 8, 130 mM NaCl, 10% glycerol, 0.0075% Tween-20, 0.5 nM DNA or nucleosome, smFRET: same Tris/NaCl/glycerol with 0.5% Tween-20, 0.1 mg/ml …

P28 nucleosome, full Gal4 site (called P29 once in text)
K half (Gal4 (1-147) [1]; text prints P29): 1.7 nM

P36 nucleosome, 222 bp
Kd (Gal4 (1-147) [2]; kon eff 0.004 nM-1 s-1, koff 1.03 s-1): 260 nM

P36 nucleosome, full Gal4 site
K half (Gal4 (1-147) [1]): 290 nM

P33 nucleosome, full Gal4 site
K half (Gal4 (1-147) [1]): 240 nM

P31 nucleosome, full Gal4 site
K half (Gal4 (1-147) [1]): 500 nM

P26 nucleosome, full Gal4 site (D1)
K half (Gal4 (1-147) [1]): 4.3 nM

P31 nucleosome, 222 bp
Kd (Gal4 (1-147) [2]; kon eff 0.0008 nM-1 s-1, koff 0.83 s-1): 980 nM

P26 nucleosome, 222 bp
Kd (Gal4 (1-147) [2]; kon eff 0.11 nM-1 s-1, koff 0.66 s-1): 6.1 nM

P26 nucleosome D17
K half (Gal4 (1-147) [1]; amino-C6-dT at nt 17 of strand 1): 9 nM
